Assay results published in patent publication US20230174635A1 (UCB, published 2023).

T1: BMP4/7 heterodimer (human, UniProt P12644 293-408; P18075 293-431)
T1 sequence (looked up) 1: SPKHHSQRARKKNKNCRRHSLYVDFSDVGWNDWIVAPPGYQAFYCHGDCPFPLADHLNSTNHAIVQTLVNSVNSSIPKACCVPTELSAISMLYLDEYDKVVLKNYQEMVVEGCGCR
T1 sequence (looked up) 2: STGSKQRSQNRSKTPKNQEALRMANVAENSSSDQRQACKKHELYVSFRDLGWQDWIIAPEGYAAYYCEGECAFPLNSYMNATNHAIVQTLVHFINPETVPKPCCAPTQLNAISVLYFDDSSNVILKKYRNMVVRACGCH

T2: recombinant human Gremlin-1 (human, UniProt O60565 25-184)
T2 sequence: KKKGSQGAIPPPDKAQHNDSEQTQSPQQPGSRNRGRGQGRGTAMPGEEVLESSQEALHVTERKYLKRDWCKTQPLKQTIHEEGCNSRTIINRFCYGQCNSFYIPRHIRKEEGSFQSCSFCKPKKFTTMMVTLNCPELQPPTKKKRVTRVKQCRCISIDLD

T3: mouse Gremlin (mouse, UniProt O70326 25-184)
T3 sequence (looked up): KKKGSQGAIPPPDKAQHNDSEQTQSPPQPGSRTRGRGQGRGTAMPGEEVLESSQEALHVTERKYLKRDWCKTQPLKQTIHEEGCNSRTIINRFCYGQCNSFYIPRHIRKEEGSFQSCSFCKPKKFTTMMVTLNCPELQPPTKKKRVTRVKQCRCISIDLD


Experiments:
Assay in all cases: cell-based or functional assay
BMP4/7 heterodimer = target: T1, BMP4/7 heterodimer
[1] = target: T2, recombinant human Gremlin-1
mouse Gremlin = target: T3, mouse Gremlin

| IC50 (geometric mean, N=2), inhibition of BMP4/7 signalling, Hek-Id1 reporter gene assay (BMP4/7 heterodimer) [nM] | IC50, restoration of BMP signalling blocked by human Gremlin, HEK-ID1 reporter gene assay [1] [nM] | IC50, restoration of BMP signalling blocked by mouse Gremlin, HEK-ID1 reporter gene assay (mouse Gremlin) [nM] | Binder |
| --- | --- | --- | --- |
| 1.7 | – | – | truncated human Gremlin-1 with N-terminal 6His-TEV tag (ligand) MGSSHHHHHHSSGENLYFQGSAMPGEEVLESSQEALHVTERKYLKRDWCKTQPLKQTIHEEGCNSRTIINRFCYGQCNSFYIPRHIRKEEGSFQSCSFCKPKKFTTMMVTLNCPELQPPTKKKRVTRVKQCRCISIDLD |
| – | 1.3 | 0.2 | Ab7326 (antibody, V domains shown) VH: QVQLVESGAEVKKPGATVKISCKVSGYTFTDYYMHWVQQAPGKGLEWMGLVDPEDGETIYAEKFQGRVTITADTSTDTAYMELSSLRSEDTAVYYCATDARGSGSYYPNHFDYWGQGTLVTVSS VL: not shown |
